From patent US20220409661A1 (published 2022)

T1: WT-1 (Wilms tumor protein 1) peptide on HLA-A*02:01 (human)
T1 peptide: RMFPNAPYL


Target: T1, WT-1 (Wilms tumor protein 1) peptide on …
Assay: multimer staining

binding result	Binder
recognises	TCR #6 (TCR, V domains shown) Valpha: EDQVTQSPEALRLQEGESSSLNCSYTVSGLRGLFWYRQDPGKGPEFLFTLYSAGEEKEKERLKATLTKKESFLHITAPKPEDSATYLCAVQTMDGNQFYFGTGTSLTVIP Vbeta: NAGVTQTPKFQVLKTGQSMTLQCAQDMNHEYMSWYRQDPGMGLRLIHYSVGAGITDQGEVPNGYNVSRSTTEDFPLRLLSAAPSQTSVYFCASSYSLWDLQETQYFGPGTRLLVL
recognises	TCR #10 (TCR, V domains shown) Valpha: AQTVTQSQPEMSVQEAETVTLSCTYDTSESNYYLFWYKQPPSRQMILVIRQEAYKQQNATENRFSVNFQKAAKSFSLKISDSQLGDTAMYFCAFNPWENYGQNFVFGPGTRLSVLP Vbeta: GAVVSQHPSWVICKSGTSVKIECRSLDFQATTMFWYRQFPKQSLMLMATSNEGSKATYEQGVEKDKFLINHASLTLSTLTVTSAHPEDSSFYICSARPHSLTDTQYFGPGTRLTVL
